Assays:
[1] = molecular target: BUNV ∆7-Gc-HA (HA-tagged head/stalk-deleted Gc glycoprotein expressed by rBUNV-∆7-Gc-HA) (Bunyamwera orthobunyavirus); assay: affinity purification with mass spectrometry; A549 (mammalian) cells mock-infected or infected at MOI 1, 24 hpi; anti-HA immunoprecipitation of Gc-HA, TMTpro 16plex TMT-MS of the bead fractions, three biological repeats; abundances normalised to common Gc peptides
[2] = molecular target: BUNV ∆7-Gc-HA (HA-tagged head/stalk-deleted Gc glycoprotein expressed by rBUNV-∆7-Gc-HA) (Bunyamwera orthobunyavirus); assay: affinity purification with mass spectrometry; C6/36 (insect) cells mock-infected or infected at MOI 1, 24 hpi; anti-HA immunoprecipitation of Gc-HA, TMTpro 16plex TMT-MS of the bead fractions, three biological repeats; abundances normalised to common Gc peptides

With “BUNV nucleocapsid protein (NP) (from UniProt P16495 1-233) (natural protein)” the log2 fold change of NP precipitated, WT-Gc-HA over ∆7-Gc-HA (log2 fold change) [1] was 0.24 and the log2 fold change of NP precipitated, WT-Gc-HA over ∆7-Gc-HA (log2 fold change) [2] was 2.76.

Source: article PMC13399505
